# According to the supplement of paper PMC11780869:
# System: Bacillus subtilis
# Assay: cleaved RNA product abundance (RNA/gDNA barcode ratio) relative to median wild-type variant (ratio to wild type); higher = more accumulation of the downstream cleavage product
# Conditions: cleavage site: cggR-gapA (positions -7 to +36 mutated)
# How it was run: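 Cleaved product abundance is expressed as the RNA:gDNA barcode ratio per construct, scaled to the median construct carrying the unmutated site. The constructs were barcoded, mutagenized RNase Y cleavage-site windows in truncated aprE or tetM reporter mRNAs integrated into the B. subtilis chromosome. Cultures grew in LB at 37°C from OD600 0.0003 to 0.3 before cleaved RNA was gel-selected and barcode-sequenced.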
# [1] = experiment (reporter, strain, medium): exp 4a: truncated aprE reporter, strain BJT201 with 2% xylose (RNase J1 expressed)
# [2] = experiment (reporter, strain, medium): exp 2b: truncated aprE reporter, strain BJT200
# [3] = experiment (reporter, strain, medium): exp 6: tetM reporter, strain 168
Sequence,cleaved RNA product abundance [1],cleaved RNA product abundance [2],cleaved RNA product abundance [3]
ACAGACGAAGGAGCCGCAAAGAAGTTATTAAGAGATGAATAATCCCTGAATATAAATATCTCTCACTTATTTAAA,0.0805,,
ACAGACGAAGGAGCCGCAAAGAAGTTATTAAGAGATGAATAATCCCTTAATATAAATATCTCTCACTTATTTAAA,0.431,0.727,
ACAGACGAAGGAGCCGCAAAGAAGTTATTAAGAGATGAATAATCCGTCAATATAAATATCTCTCACTTATTTAAA,0.0917,0.0978,
ACAGACGAAGGAGCCGCAAAGAAGTTATTAAGAGATGAATAATCCTTCAATATAAATATCTCTCACTTATTTAAA,0.211,0.105,
ACAGACGAAGGAGCCGCAAAGAAGTTATTAAGAGATGAATAATCGCTCAATATAAATATCTCTCACTTATTTAAA,0.0997,,
ACAGACGAAGGAGCCGCAAAGAAGTTATTAAGAGATGAATAATCTCTCAATATAAATATCTCTCACTTATTTAAA,0.924,0.718,
ACAGACGAAGGAGCCGCAAAGAAGTTATTAAGAGATGAATAATGCCTCAATATAAATATCTCTCACTTATTTAAA,0.1,,
ACAGACGAAGGAGCCGCAAAGAAGTTATTAAGAGATGAATAATTCCTCAATATAAATATCTCTCACTTATTTAAA,0.106,0.0877,
ACAGACGAAGGAGCCGCAAAGAAGTTATTAAGAGATGAATACTCCCTCAATATAAATATCTCTCACTTATTTAAA,0.0945,,
ACAGACGAAGGAGCCGCAAAGAAGTTATTAAGAGATGAATAGTCCCTCAATATAAATATCTCTCACTTATTTAAA,0.136,0.0992,
ACAGACGAAGGAGCCGCAAAGAAGTTATTAAGAGATGAATATTCCCTCAATATAAATATCTCTCACTTATTTAAA,0.0954,,
ACAGACGAAGGAGCCGCAAAGAAGTTATTAAGAGATGAATCATCCCTCAATATAAATATCTCTCACTTATTTAAA,0.139,,
ACAGACGAAGGAGCCGCAAAGAAGTTATTAAGAGATGAATGATCCCTCAATATAAATATCTCTCACTTATTTAAA,0.0837,,
ACAGACGAAGGAGCCGCAAAGAAGTTATTAAGAGATGAATTATCCCTCAATATAAATATCTCTCACTTATTTAAA,0.183,0.102,
ACAGACGAAGGAGCCGCAAAGAAGTTATTAAGAGATGACTAATCCCTCAATATAAATATCTCTCACTTATTTAAA,0.0924,0.082,
ACAGACGAAGGAGCCGCAAAGAAGTTATTAAGAGATGAGTAATCCCTCAATATAAATATCTCTCACTTATTTAAA,0.241,,
ACAGACGAAGGAGCCGCAAAGAAGTTATTAAGAGATGATTAATCCCTCAATATAAATATCTCTCACTTATTTAAA,0.173,,
ACAGACGAAGGAGCCGCAAAGAAGTTATTAAGAGATGCATAATCCCTCAATATAAATATCTCTCACTTATTTAAA,0.158,0.117,
ACAGACGAAGGAGCCGCAAAGAAGTTATTAAGAGATGTATAATCCCTCAATATAAATATCTCTCACTTATTTAAA,0.229,,
ACAGACGAAGGAGCCGCAAAGAAGTTATTAAGAGATTAATAATCCCTCAATATAAATATCTCTCACTTATTTAAA,0.115,0.116,

Sequence,cleaved RNA product abundance [1],cleaved RNA product abundance [2],cleaved RNA product abundance [3]
ACAGACGAAGGAGCCGCAAAGAAGTTATTAAGAGCTGAATAATCCCTCAATATAAATATCTCTCACTTATTTAAA,,0.0922,
ACAGACGAAGGAGCCGCAAAGAAGTTATTAAGAGGTGAATAATCCCTCAATATAAATATCTCTCACTTATTTAAA,0.253,,
ACAGACGAAGGAGCCGCAAAGAAGTTATTAAGAGTTGAATAATCCCTCAATATAAATATCTCTCACTTATTTAAA,0.0897,,
ACAGACGAAGGAGCCGCAAAGAAGTTATTAAGATATGAATAATCCCTAAATATAAATATCTCTCACTTATTTAAA,0.101,,
ACAGACGAAGGAGCCGCAAAGAAGTTATTAAGATATGAATAATCCCTCAATATAAATATCTCTCACTTATTTAAA,0.115,0.0758,
ACAGACGAAGGAGCCGCAAAGAAGTTATTAAGCAATGAATAATCCCTCAATATAAATATCTCTCACTTATTTAAA,0.122,0.0903,
ACAGACGAAGGAGCCGCAAAGAAGTTATTAAGCCATGAATAATCCCTCAATATAAATATCTCTCACTTATTTAAA,0.106,,0.058
ACAGACGAAGGAGCCGCAAAGAAGTTATTAAGCGATAAATAATCCCTCAATATAAATATCTCTCACTTATTTAAA,0.0716,0.0673,
ACAGACGAAGGAGCCGCAAAGAAGTTATTAAGCGATCAATAATCCCTCAATATAAATATCTCTCACTTATTTAAA,0.0886,0.0893,
ACAGACGAAGGAGCCGCAAAGAAGTTATTAAGCGATGAACAATCCCTCAATATAAATATCTCTCACTTATTTAAA,0.133,,
ACAGACGAAGGAGCCGCAAAGAAGTTATTAAGCGATGAAGAATCCCTCAATATAAATATCTCTCACTTATTTAAA,0.0967,,
ACAGACGAAGGAGCCGCAAAGAAGTTATTAAGCGATGAATAAACCCTCAATATAAATATCTCTCACTTATTTAAA,0.0954,,
ACAGACGAAGGAGCCGCAAAGAAGTTATTAAGCGATGAATAAGCCCTCAATATAAATATCTCTCACTTATTTAAA,0.108,,
ACAGACGAAGGAGCCGCAAAGAAGTTATTAAGCGATGAATAATACCTCAATATAAATATCTCTCACTTATTTAAA,0.127,0.0864,
ACAGACGAAGGAGCCGCAAAGAAGTTATTAAGCGATGAATAATCACTCAATATAAATATCTCTCACTTATTTAAA,0.101,,
ACAGACGAAGGAGCCGCAAAGAAGTTATTAAGCGATGAATAATCCATCAATATAAATATCTCTCACTTATTTAAA,0.154,0.121,
ACAGACGAAGGAGCCGCAAAGAAGTTATTAAGCGATGAATAATCCCACAATATAAATATCTCTCACTTATTTAAA,0.0785,,
ACAGACGAAGGAGCCGCAAAGAAGTTATTAAGCGATGAATAATCCCCCAATATAAATATCTCTCACTTATTTAAA,0.13,0.0922,
ACAGACGAAGGAGCCGCAAAGAAGTTATTAAGCGATGAATAATCCCGCAATATAAATATCTCTCACTTATTTAAA,0.0767,0.0603,
ACAGACGAAGGAGCCGCAAAGAAGTTATTAAGCGATGAATAATCCCTAAATATAAATATCTCTCACTTATTTAAA,0.207,0.132,

Sequence,cleaved RNA product abundance [1],cleaved RNA product abundance [2],cleaved RNA product abundance [3]
ACAGACGAAGGAGCCGCAAAGAAGTTATTAAGCGATGAATAATCCCTCAAAATAAATATCTCTCACTTATTTAAA,0.108,0.0793,
ACAGACGAAGGAGCCGCAAAGAAGTTATTAAGCGATGAATAATCCCTCAAGATAAATATCTCTCACTTATTTAAA,0.0789,0.0861,
ACAGACGAAGGAGCCGCAAAGAAGTTATTAAGCGATGAATAATCCCTCAATAAAAATATCTCTCACTTATTTAAA,0.0528,,
ACAGACGAAGGAGCCGCAAAGAAGTTATTAAGCGATGAATAATCCCTCAATAGAAATATCTCTCACTTATTTAAA,0.0613,0.0778,
ACAGACGAAGGAGCCGCAAAGAAGTTATTAAGCGATGAATAATCCCTCAATATAAAAATCTCTCACTTATTTAAA,0.111,0.111,
ACAGACGAAGGAGCCGCAAAGAAGTTATTAAGCGATGAATAATCCCTCAATATAAACATCTCTCACTTATTTAAA,0.0627,0.0873,
ACAGACGAAGGAGCCGCAAAGAAGTTATTAAGCGATGAATAATCCCTCAATATAAATAACTCTCACTTATTTAAA,0.102,0.114,
ACAGACGAAGGAGCCGCAAAGAAGTTATTAAGCGATGAATAATCCCTCAATATAAATACCTCTCACTTATTTAAA,0.118,,
ACAGACGAAGGAGCCGCAAAGAAGTTATTAAGCGATGAATAATCCCTCAATATAAATATCTCTCACTTATTTAAA,0.116,0.0916,0.132
ACAGACGAAGGAGCCGCAAAGAAGTTATTAAGCGATGAATAATCCCTCAATATAAATATTTCTCACTTATTTAAA,0.171,0.0865,
ACAGACGAAGGAGCCGCAAAGAAGTTATTAAGCGATGAATAATCCCTCAATATAGATATCTCTCACTTATTTAAA,0.0736,,
ACAGACGAAGGAGCCGCAAAGAAGTTATTAAGCGATGAATAATCCCTCAATATTAATATCTCTCACTTATTTAAA,0.151,,
ACAGACGAAGGAGCCGCAAAGAAGTTATTAAGCGATGAATAATCCCTCACTATAAATATCTCTCACTTATTTAAA,0.0749,0.0669,
ACAGACGAAGGAGCCGCAAAGAAGTTATTAAGCGATGAATAATCCCTCATAATAAATATCTCTCACTTATTTAAA,,0.165,
ACAGACGAAGGAGCCGCAAAGAAGTTATTAAGCGATGAATAATCCCTCCATATAAATATCTCTCACTTATTTAAA,0.0952,,
ACAGACGAAGGAGCCGCAAAGAAGTTATTAAGCGATGAATAATCCCTCTATATAAATATCTCTCACTTATTTAAA,0.0811,,
ACAGACGAAGGAGCCGCAAAGAAGTTATTAAGCGATGAATAATCCCTGAATATAAATATCTCTCACTTATTTAAA,0.072,,
ACAGACGAAGGAGCCGCAAAGAAGTTATTAAGCGATGAATAATCCCTTAATATAAATATCTCTCACTTATTTAAA,0.301,,
